According to patent US20150258192A1, “COMPOSITIONS AND METHODS FOR PREVENTING OR TREATING CHRONIC LUNG ALLOGRAFT DYSFUNCTION (CLAD) AND IDIOPATHIC PULMONARY FIBROSIS (IPF)” (priority 2014, published 2015):
No end group written: not given here.

What was measured:
Test in all cases: Kinase Profiling Assay
Assay type in all cases: biochemical
Details in all cases: peptide 100 μM
PDK1(h) = molecular target: T1, PDK1(h) (Homo sapiens, UniProt O15530)
T1 sequence (O15530 1-556): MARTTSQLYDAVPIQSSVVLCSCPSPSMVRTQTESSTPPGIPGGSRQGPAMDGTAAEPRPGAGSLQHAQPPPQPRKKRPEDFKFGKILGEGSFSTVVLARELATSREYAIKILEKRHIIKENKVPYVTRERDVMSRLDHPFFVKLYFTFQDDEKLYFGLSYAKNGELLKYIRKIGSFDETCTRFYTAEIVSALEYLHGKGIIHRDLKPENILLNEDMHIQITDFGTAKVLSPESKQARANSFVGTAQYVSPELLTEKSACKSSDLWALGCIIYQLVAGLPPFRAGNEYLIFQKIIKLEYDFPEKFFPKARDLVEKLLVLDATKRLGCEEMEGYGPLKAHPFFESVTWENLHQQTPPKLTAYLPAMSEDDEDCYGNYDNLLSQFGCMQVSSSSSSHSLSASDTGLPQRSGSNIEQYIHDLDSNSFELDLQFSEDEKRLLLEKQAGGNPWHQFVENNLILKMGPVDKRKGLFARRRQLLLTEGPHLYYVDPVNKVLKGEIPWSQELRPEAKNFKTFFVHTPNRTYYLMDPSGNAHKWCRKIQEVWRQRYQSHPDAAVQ
Outline: (§1)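 In this 266-kinase specificity panel, every measurement was duplicated. Transfer of labeled phosphate from ATP to a cationic substrate was quantified after the substrate adhered to an anionic filter membrane and was scintillation-counted, then related to a full-activity control.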

PKCθ(h) = PKCθ(h) (Homo sapiens, UniProt Q04759)
Outline: as §1

Ret(V804M)(h) = Ret(V804M)(h) (Homo sapiens, UniProt P07949, V804M)
Outline: as §1

MAPKAP-K3(h) = molecular target: T2, MAPKAP-K3(h) (Homo sapiens, UniProt Q16644)
T2 construct: purchased Millipore
T2 sequence (Q16644 whole entry): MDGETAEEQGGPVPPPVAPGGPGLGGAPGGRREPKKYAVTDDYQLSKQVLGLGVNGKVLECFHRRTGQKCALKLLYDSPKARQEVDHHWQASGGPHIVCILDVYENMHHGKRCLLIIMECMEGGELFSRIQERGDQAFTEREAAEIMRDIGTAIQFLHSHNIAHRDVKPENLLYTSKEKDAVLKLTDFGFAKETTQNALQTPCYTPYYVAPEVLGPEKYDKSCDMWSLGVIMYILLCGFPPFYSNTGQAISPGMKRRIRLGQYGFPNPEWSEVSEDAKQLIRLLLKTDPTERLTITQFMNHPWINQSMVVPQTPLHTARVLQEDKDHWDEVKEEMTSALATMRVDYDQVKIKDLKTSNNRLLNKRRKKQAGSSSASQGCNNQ
Outline: as §1

VRK2(h) = VRK2(h) (Homo sapiens, UniProt Q86Y07)
Sequence of VRK2(h) (Q86Y07 whole entry): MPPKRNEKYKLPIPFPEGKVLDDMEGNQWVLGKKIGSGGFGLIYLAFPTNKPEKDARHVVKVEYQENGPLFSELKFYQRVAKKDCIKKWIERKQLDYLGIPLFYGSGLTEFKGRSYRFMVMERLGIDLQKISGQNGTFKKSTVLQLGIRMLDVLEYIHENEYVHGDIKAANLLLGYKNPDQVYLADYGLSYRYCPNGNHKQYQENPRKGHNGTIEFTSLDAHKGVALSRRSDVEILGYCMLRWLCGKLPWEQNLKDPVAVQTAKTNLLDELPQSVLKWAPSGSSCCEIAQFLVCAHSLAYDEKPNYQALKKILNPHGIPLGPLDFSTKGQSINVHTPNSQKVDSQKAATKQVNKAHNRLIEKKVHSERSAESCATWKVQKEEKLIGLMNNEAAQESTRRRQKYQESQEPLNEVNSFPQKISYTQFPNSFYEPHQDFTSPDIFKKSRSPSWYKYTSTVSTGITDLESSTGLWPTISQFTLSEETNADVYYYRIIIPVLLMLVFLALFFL
Outline: as §1

SRPK2(h) = molecular target: T3, SRPK2(h) (Homo sapiens, UniProt P78362)
T3 construct: purchased Millipore
T3 sequence (P78362 whole entry): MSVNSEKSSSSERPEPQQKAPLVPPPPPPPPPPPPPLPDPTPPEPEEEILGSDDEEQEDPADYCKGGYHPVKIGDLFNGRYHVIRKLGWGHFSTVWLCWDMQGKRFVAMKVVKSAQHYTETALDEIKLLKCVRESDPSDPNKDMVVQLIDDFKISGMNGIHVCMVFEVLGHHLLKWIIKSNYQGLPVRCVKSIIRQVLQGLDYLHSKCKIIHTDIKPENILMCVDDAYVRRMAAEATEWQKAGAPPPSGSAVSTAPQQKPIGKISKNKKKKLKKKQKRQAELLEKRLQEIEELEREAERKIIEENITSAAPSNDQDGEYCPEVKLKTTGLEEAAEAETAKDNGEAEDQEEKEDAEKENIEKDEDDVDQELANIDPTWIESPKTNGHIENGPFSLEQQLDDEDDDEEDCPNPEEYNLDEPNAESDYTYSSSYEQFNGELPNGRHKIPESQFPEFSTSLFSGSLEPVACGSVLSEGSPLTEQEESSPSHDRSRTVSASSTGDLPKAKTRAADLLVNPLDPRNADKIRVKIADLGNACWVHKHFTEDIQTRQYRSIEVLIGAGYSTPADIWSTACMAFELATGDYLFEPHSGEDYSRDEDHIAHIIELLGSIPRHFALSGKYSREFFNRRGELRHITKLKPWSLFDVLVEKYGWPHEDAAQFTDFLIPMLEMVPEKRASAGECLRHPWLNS
Outline: as §1

SIK(h) = molecular target: T4, SIK(h) (Homo sapiens, UniProt P57059)
T4 construct: purchased Millipore
T4 sequence (P57059 whole entry): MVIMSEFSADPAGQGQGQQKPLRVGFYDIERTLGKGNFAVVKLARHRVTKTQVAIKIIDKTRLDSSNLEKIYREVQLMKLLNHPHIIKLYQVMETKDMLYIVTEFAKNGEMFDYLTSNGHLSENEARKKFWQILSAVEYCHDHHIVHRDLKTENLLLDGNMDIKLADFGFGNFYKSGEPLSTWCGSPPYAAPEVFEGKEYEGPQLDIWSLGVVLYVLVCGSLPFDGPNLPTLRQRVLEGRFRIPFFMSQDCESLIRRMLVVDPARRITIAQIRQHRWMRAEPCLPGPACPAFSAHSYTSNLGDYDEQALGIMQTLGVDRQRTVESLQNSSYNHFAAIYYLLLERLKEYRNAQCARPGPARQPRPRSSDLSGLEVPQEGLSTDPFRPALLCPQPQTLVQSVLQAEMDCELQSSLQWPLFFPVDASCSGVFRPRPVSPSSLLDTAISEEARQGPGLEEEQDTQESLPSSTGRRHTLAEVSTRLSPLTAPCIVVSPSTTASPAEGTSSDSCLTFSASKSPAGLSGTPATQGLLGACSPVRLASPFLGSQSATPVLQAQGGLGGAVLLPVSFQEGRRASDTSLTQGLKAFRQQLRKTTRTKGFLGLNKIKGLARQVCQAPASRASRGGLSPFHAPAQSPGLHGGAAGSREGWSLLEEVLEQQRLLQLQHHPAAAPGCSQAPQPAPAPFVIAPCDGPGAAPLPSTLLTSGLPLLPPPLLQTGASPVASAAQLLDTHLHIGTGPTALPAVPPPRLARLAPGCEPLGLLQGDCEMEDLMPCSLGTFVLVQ
Outline: as §1

GRK6(h) = molecular target: T5, GRK6(h) (Homo sapiens, UniProt P43250)
T5 construct: purchased Millipore
T5 sequence (P43250 whole entry): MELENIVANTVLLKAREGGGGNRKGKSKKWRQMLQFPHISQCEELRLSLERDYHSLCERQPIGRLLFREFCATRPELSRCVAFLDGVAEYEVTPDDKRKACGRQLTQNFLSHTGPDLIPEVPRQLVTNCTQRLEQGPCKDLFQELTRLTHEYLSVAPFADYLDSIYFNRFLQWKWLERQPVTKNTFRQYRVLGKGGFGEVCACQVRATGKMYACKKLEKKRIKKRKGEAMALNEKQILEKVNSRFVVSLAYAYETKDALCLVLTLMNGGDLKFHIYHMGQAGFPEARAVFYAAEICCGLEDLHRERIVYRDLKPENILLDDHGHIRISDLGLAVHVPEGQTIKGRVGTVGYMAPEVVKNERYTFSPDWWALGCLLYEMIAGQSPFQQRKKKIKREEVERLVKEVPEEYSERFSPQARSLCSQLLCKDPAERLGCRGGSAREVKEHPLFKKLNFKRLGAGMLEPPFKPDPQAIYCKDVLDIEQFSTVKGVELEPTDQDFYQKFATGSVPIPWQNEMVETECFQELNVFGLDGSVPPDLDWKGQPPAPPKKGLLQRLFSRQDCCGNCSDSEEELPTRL
Outline: as §1

CDK6/cyclinD3(h) = CDK6/cyclinD3(h) (Homo sapiens, UniProt Q00534)
Sequence of CDK6/cyclinD3(h) (Q00534 whole entry): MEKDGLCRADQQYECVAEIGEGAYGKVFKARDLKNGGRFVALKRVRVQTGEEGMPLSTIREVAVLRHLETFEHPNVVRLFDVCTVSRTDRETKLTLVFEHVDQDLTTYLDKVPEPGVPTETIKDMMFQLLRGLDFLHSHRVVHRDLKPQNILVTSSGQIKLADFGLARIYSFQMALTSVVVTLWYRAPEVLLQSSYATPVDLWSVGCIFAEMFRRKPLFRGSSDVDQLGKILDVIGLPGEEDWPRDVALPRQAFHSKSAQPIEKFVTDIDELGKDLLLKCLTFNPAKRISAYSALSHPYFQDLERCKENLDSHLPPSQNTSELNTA
Sequence of CDK6/cyclinD3(h) (P30281 whole entry partner): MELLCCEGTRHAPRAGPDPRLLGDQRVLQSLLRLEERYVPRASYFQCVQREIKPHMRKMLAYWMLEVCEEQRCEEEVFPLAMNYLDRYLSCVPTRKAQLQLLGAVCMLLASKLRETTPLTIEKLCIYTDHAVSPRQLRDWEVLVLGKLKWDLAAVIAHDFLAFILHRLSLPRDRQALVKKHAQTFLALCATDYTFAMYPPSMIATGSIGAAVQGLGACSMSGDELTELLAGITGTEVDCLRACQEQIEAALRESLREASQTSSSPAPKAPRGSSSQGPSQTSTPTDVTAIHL
Outline: as §1

Rsk2(h) = Rsk2(h) (Homo sapiens, UniProt P51812)
Sequence of Rsk2(h) (P51812 whole entry): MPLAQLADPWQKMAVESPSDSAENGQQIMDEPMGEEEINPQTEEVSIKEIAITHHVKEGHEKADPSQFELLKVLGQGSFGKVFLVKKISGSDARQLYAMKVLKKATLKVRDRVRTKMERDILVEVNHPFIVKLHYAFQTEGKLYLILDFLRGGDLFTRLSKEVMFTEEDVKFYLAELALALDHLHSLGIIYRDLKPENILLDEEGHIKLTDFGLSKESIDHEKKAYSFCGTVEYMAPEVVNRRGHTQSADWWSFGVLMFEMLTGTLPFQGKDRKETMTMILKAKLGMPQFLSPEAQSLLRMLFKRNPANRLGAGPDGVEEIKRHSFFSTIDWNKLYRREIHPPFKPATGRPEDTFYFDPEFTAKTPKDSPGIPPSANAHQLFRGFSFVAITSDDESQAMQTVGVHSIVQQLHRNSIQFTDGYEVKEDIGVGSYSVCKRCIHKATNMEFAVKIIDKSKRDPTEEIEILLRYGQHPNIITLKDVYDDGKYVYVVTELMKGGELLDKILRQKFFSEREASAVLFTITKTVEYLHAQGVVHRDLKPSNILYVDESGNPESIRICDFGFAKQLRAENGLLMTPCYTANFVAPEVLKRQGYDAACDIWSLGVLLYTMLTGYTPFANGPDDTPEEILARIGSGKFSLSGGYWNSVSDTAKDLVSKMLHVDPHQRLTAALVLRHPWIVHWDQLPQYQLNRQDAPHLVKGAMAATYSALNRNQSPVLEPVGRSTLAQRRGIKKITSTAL
Outline: as §1

ULK2(h) = molecular target: T6, ULK2(h) (Homo sapiens, UniProt Q8IYT8)
T6 sequence (Q8IYT8 1-1036): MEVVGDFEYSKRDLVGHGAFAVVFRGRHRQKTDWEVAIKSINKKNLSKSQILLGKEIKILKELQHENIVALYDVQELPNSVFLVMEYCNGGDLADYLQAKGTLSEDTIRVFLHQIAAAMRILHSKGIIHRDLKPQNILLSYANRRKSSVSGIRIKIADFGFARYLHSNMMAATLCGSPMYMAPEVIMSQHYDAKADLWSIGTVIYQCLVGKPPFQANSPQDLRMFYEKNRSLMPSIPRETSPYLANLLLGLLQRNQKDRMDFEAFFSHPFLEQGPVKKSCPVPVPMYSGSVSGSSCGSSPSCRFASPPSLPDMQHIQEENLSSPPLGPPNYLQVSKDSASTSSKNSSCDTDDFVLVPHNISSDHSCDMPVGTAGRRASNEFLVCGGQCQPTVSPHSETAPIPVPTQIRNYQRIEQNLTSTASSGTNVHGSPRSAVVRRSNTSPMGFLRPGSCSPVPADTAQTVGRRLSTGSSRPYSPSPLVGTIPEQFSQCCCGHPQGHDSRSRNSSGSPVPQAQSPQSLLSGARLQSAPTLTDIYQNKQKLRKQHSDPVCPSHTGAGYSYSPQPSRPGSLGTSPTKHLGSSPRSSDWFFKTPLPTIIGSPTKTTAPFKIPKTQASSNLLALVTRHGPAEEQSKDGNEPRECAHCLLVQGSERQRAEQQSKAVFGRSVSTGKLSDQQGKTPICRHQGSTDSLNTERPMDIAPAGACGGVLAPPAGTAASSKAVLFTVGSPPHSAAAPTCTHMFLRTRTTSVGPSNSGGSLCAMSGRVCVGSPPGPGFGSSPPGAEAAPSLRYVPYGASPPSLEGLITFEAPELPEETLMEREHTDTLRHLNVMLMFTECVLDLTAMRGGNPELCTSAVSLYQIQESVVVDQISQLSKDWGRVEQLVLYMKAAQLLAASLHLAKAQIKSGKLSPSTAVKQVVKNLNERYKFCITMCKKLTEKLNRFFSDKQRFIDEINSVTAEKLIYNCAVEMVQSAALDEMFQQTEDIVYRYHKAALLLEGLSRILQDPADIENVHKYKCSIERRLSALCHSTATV
Outline: as §1

MAPK1(h) = molecular target: T7, MAPK1(h) (Homo sapiens, UniProt P27361)
T7 construct: purchased Millipore
T7 sequence (P27361 whole entry): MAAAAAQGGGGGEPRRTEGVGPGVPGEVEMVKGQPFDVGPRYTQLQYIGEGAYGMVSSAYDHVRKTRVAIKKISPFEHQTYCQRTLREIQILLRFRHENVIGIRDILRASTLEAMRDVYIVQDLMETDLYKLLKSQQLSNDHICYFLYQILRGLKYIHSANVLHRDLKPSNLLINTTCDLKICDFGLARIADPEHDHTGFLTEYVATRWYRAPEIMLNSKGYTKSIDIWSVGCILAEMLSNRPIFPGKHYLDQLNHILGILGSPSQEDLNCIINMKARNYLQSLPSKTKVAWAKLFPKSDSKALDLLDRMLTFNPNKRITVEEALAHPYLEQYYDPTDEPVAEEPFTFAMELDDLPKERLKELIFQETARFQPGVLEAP
Outline: as §1

Row | Sequence | % activity (PDK1(h)) [%] | % activity (PKCθ(h)) [%] | % activity (Ret(V804M)(h)) [%] | % activity (MAPKAP-K3(h)) [%] | % activity (VRK2(h)) [%] | % activity (SRPK2(h)) [%] | % activity (SIK(h)) [%] | % activity (GRK6(h)) [%] | % activity (CDK6/cyclinD3(h)) [%] | % activity (Rsk2(h)) [%] | % activity (ULK2(h)) [%] | % activity (MAPK1(h)) [%]
1 | HRRIKAWLKKIKALARQLGVAA (Mammal) [MMI-0500] | 178 | 62 | 36 | 9 | 169 | 80 | 40 | 174 | 23 | 14 | 124 | –
2 | YARAAARQARAKALNRQLGVA (Mammal) [MMI-0200] | 143 | 101 | – | 39 | – | 100 | – | 132 | 100 | 101 | 132 | 97
3 | YARAAARQARAKALARQLGVAA [MMI-0100] | – | – | 92 | 27 | – | 92 | – | 131 | – | – | 123 | 108
4 | FAKLAARLYRKALARQLGVAA [MMI-0300] | 135 | 88 | 95 | 3 | 161 | – | 66 | 147 | 86 | 51 | 122 | –
5 | KAFAKLAARLYRKALARQLGVAA [MMI-0400] | 159 | 76 | 87 | 7 | 185 | 97 | 68 | 141 | 85 | 38 | 131 | 100
